Experimental findings from patent publication US20170160291 are described below.

The data set deals with immature human CFD (proCFD).

B1: recombinant protease MASP1 (protein)
chain: HTVELNNMFGQIQSPGYPDSYPSDSEVTWNITVPDGFRIKLYFMHFNLESSYLCEYDYVKVETEDQVLATFCGRETTDTEQTPGQEVVLSPGSFMSITFRSDFSNEERFTGFDAHYMAVDVDECKEREDEELSCDHYCHNYIGGYYCSCRFGYILHTDNRTCRVECSDNLFTQRTGVITSPDFPNPYPKSSECLYTIELEEGFMVNLQFEDIFDIEDHPEVPCPYDYIKIKVGPKVLGPFCGEKAPEPISTQSHSVLILFHSDNSGENRGWRLSYRAAGNECPELQPPVHGKIEPSQAKYFFKDQVLVSCDTGYKVLKDNVEMDTFQIECLKDGTWSNKIPTCKIVDCRAPGELEHGLITFSTRNNLTTYKSEIKYSCQEPYYKMLNNNTGIYTCSAQGVWMNKVLGRSLPTCLPVCGLPKFSRKLMARIFNGRPAQKGTTPWIAMLSHLNGQPFCGGSLLGSSWIVTAAHCLHQSLDPEDPTLRDSDLLSPSDFKIILGKHWRLRSDENEQHLGVKHTTLHPQYDPNTFENDVALVELLESPVLNAFVMPICLPEGPQQEGAMVIVSGWGKQFLQRFPETLMEIEIPIVDHSTCQKAYAPLKKKVTRDMICAGEKEGGKDACAGDSGGPMVTLNRERGQWYLVGTVSWGDDCGKKDRYGVYSYIHHNKDWIQRVTGVRN
Regarding B1, the “processing of proCFD (IEF immunoblot after overnight incubation at 37 C)” value (“processing of proCFD” for short) is reported as “ProCFD treated with MASP1 was not strongly processed (lane 1)”.

B2: recombinant protease MASP3 (protein)
chain: HTVELNNMFGQIQSPGYPDSYPSDSEVTWNITVPDGFRIKLYFMHFNLESSYLCEYDYVKVETEDQVLATFCGRETTDTEQTPGQEVVLSPGSFMSITFRSDFSNEERFTGFDAHYMAVDVDECKEREDEELSCDHYCHNYIGGYYCSCRFGYILHTDNRTCRVECSDNLFTQRTGVITSPDFPNPYPKSSECLYTIELEEGFMVNLQFEDIFDIEDHPEVPCPYDYIKIKVGPKVLGPFCGEKAPEPISTQSHSVLILFHSDNSGENRGWRLSYRAAGNECPELQPPVHGKIEPSQAKYFFKDQVLVSCDTGYKVLKDNVEMDTFQIECLKDGTWSNKIPTCKIVDCRAPGELEHGLITFSTRNNLTTYKSEIKYSCQEPYYKMLNNNTGIYTCSAQGVWMNKVLGRSLPTCLPECGQPSRSLPSLVKRIIGGRNAEPGLFPWQALIVVEDTSRVPNDKWFGSGALLSASWILTAAHVLRSQRRDTTVIPVSKEHVTVYLGLHDVRDKSGAVNSSAARVVLHPDFNIQNYNHDIALVQLQEPVPLGPHVMPVCLPRLEPEGPAPHMLGLVAGWGISNPNVTVDEIISSGTRTLSDVLQYVKLPVVPHAECKTSYESRSGNYSVTENMFCAGYYEGGKDTCLGDSGGAFVIFDDLSQRWVVQGLVSWGGPEECGSKQVYGVYTKVSNYVDWVWEQMGLPQSVVEPQVER
B2: the “degree of processing of the proCFD N terminus (targeted mass spectrometry, convertase activity test)” value is “Only the proteases from the MASP family, i.e. L. MASP3 show a successful activation of proCFD”; the “processing of proCFD” value was “proCFD treated with MASP3 was almost completely converted into active CFD and even shows further processed forms (lane 2)”.

B3: recombinant protease C1S (protein)
chain: EPTMYGEILSPNYPQAYPSEVEKSWDIEVPEGYGIHLYFTHLDIELSENCAYDSVQIISGDTEEGRLCGQRSSNNPHSPIVEEFQVPYNKLQVIFKSDFSNEERFTGFAAYYVATDINECTDFVDVPCSHFCNNFIGGYFCSCPPEYFLHDDMKNCGVNCSGDVFTALIGEIASPNYPKPYPENSRCEYQIRLEKGFQVVVTLRREDFDVEAADSAGNCLDSLVFVAGDRQFGPYCGHGFPGPLNIETKSNALDIIFQTDLTGQKKGWKLRYHGDPMPCPKEDTPNSVWEPAKAKYVFRDVVQITCLDGFEVVEGRVGATSFYSTCQSNGKWSNSKLKCQPVDCGIPESIENGKVEDPESTLFGSVIRYTCEEPYYYMENGGGGEYHCAGNGSWVNEVLGPELPKCVPVCGVPREPFEEKQRIIGGSDADIKNFPWQVFFDNPWAGGALINEYWVLTAAHVVEGNREPTMYVGSTSVQTSRLAKSKMLTPEHVFIHPGWKLLEVPEGRTNFDNDIALVRLKDPVKMGPTVSPICLPGTSSDYNLMDGDLGLISGWGRTEKRDRAVRLKAARLPVAPLRKCKEVKVEKPTADAEAYVFTPNMICAGGEKGMDSCKGDSGGAFAVQDPNDKTKFYAAGLVSWGPQCGTYGLYTRVKNYVDWIMKTMQENSTPRED
Take B3: the “processing of proCFD” value is “the convertase C1S hardly shows effects (lane 4, like MASP1)”.

B4: recombinant protease C1R (protein)
chain: SIPIPQKLFGEVTSPLFPKPYPNNFETTTVITVPTGYRVKLVFQQFDLEPSEGCFYDYVKISADKKSLGRFCGQLGSPLGNPPGKKEFMSQGNKMLLTFHTDFSNEENGTIMFYKGFLAYYQAVDLDECASRSKSGEEDPQPQCQHLCHNYVGGYFCSCRPGYELQEDTHSCQAECSSELYTEASGYISSLEYPRSYPPDLRCNYSIRVERGLTLHLKFLEPFDIDDHQQVHCPYDQLQIYANGKNIGEFCGKQRPPDLDTSSNAVDLLFFTDESGDSRGWKLRYTTEIIKCPQPKTLDEFTIIQNLQPQYQFRDYFIATCKQGYQLIEGNQVLHSFTAVCQDDGTWHRAMPRCKIKDCGQPRNLPNGDFRYTTTMGVNTYKARIQYYCHEPYYKMQTRAGSRESEQGVYTCTAQGIWKNEQKGEKIPRCLPVCGKPVNPVEQRQRIIGGQKAKMGNFPWQVFTNIHGRGGGALLGDRWILTAAHTLYPKEHEAQSNASLDVFLGHTNVEELMKLGNHPIRRVSVHPDYRQDESYNFEGDIALLELENSVTLGPNLLPICLPDNDTFYDLGLMGYVSGFGVMEEKIAHDLRFVRLPVANPQACENWLRGKNRMDVFSQNMFCAGHPSLKQDACQGDSGGVFAVRDPNTDRWVATGIVSWGIGCSRGYGFYTKVLNYVDWIKKEMEEED
Consider B4, for which the “processing of proCFD” value is reported as “The treatment with C1R resulted in a partial processing/activation (lane 3)”.
